Key:
[1] = target: Recombinant canine IL-31 produced in CHO cells (canine); assay: SPR (Biacore), IL-31 amine-coupled to the chip, mAb in solution, 1:1 fit
[2] = target: Recombinant canine IL-31 produced in CHO cells (canine); assay: cell-based or functional assay
[3] = target: Recombinant canine IL-31 produced in CHO cells (canine); assay: SPR (Biacore), IL-31 amine-coupled to the chip, mAb in solution, 1:1 fit; Biacore affinity (SPR); weak, about 0.5 uM; not active in the DH82 pSTAT assay
[4] = target: Recombinant canine IL-31 produced in CHO cells (canine)

Recombinant canine IL-31 produced in CHO cells (canine), sequence (chain, as listed by the source limits assumed, form in doubt): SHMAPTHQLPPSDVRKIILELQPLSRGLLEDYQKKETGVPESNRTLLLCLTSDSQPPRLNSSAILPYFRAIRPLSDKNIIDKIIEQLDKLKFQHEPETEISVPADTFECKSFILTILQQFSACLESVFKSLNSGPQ

B1: Mouse 34D03 (antibody, V domains shown)
VH: EVQLVESGGDLVKPGGSLKLSCAASGFSFSNYGMSWVRQTPDKRLEWVATISYGGSYTYYPDNIKGRFTISRDNAKNTLYLQMSSLKSEDTAMYYCVRGYGYDTMDYWGQGTSVTVSS
VL: DILLTQSPASLAVSLGQRAIISCKASQSVSFAGTGLMHWYQQKPGQQPKLLIYRASNLEAGVPTRFSGSGSRTDFTLNIHPVEEEDAATYFCQQSREYPWTFGGGTKLEIK
For B1, the Kd [1] was 1.01 pM, the DH82 pSTAT Assay, Co-incubation IC50 [2] was 1.73 µg/ml and the DH82 pSTAT Assay, Pre-treatment IC50 [2] was 2.28 µg/ml.

B2: Chimeric 34D03 (antibody, V domains shown)
VH: EVQLVESGGDLVKPGGSLKLSCAASGFSFSNYGMSWVRQTPDKRLEWVATISYGGSYTYYPDNIKGRFTISRDNAKNTLYLQMSSLKSEDTAMYYCVRGYGYDTMDYWGQGTSVTVSS
VL: DILLTQSPASLAVSLGQRAIISCKASQSVSFAGTGLMHWYQQKPGQQPKLLIYRASNLEAGVPTRFSGSGSRTDFTLNIHPVEEEDAATYFCQQSREYPWTFGGGTKLEIKR
For B2, the Kd [1] was 4.65 pM, the DH82 pSTAT Assay, Co-incubation IC50 [2] was 1.28 µg/ml and the DH82 pSTAT Assay, Pre-treatment IC50 [2] was 1.08 µg/ml.

B3: 11E12 Heterochimera (antibody, V domains shown)
VH: EVQLVQSGAEVKKPGASVKVSCKTSGYTFKYYDINWVRQAPGAGLDWMGWIFPGDGGTKYNETFKGRVTLTADTSTSTAYMELSSLRAGDIAVYYCARGGTSVIRDAMDYWGQGTLVTVSS
VL: DIVLTQSPASLAVSLGQRATISCRASESVDNYGISFMHWYQQKPGQPPKLLIYRASNLESGIPARFSGSGSRTDFTLTINPVETDDVATYYCQQSNKDPLTFGAGTKLELKR
B3 was tested, and the Kd [1] was 4.97 pM, the DH82 pSTAT Assay, Co-incubation IC50 [2] was 2.67 µg/ml and the DH82 pSTAT Assay, Pre-treatment IC50 [2] was 3.35 µg/ml.

B4: Caninized 11E12 (antibody, V domains shown)
VH: EVQLVQSGAEVKKPGASVKVSCKTSGYTFKYYDINWVRQAPGAGLDWMGWIFPGDGGTKYNETFKGRVTLTADTSTSTAYMELSSLRAGDIAVYYCARGGTSVIRDAMDYWGQGTLVTVSS
VL: DIVMTQTPLSLSVSPGEPASISCRASESVDNYGISFMHWFQQKPGQSPQRLIYRASNLESGVPDRFSGSGSGTDFTLRISRVEADDAGVYYCQQSNKDPLTFGAGTKLEIKR
Work on B4 yielded a Kd [3] of 506 nM.

B5: Caninized 11E12 FW2 (antibody, V domains shown)
VH: EVQLVQSGAEVKKPGASVKVSCKTSGYTFKYYDINWVRQAPGAGLDWMGWIFPGDGGTKYNETFKGRVTLTADTSTSTAYMELSSLRAGDIAVYYCARGGTSVIRDAMDYWGQGTLVTVSS
VL: DIVMTQTPLSLSVSPGEPASISCRASESVDNYGISFMHWYQQKPGQPPKLLIYRASNLESGVPDRFSGSGSGTDFTLRISRVEADDAGVYYCQQSNKDPLTFGAGTKLEIKR
In the case of B5, the Kd [1] is reported as 147 pM, the DH82 pSTAT Assay, Co-incubation IC50 [2] is reported as 2.7 µg/ml and the DH82 pSTAT Assay, Pre-treatment IC50 [2] is reported as 5.31 µg/ml.

B6: Caninized 11E12 13 (antibody, V domains shown)
VH: EVQLVQSGAEVKKPGASVKVSCKTSGYTFKYYDINWVRQAPGAGLDWMGWIFPGDGGTKYNETFKGRVTLTADTSTSTAYMELSSLRAGDIAVYYCARGGTSVIRDAMDYWGQGTLVTVSS
VL: DIVMTQTPLSLSVSPGEPASISCRASESVDNYGISFMHWFQQKPGQSPQLLIYRASNLESGVPDRFSGSGSGTDFTLRISRVEADDAGVYYCQQSNKDPLTFGAGTKLEIKR
With B6 the Kd [1] was 5.16 pM, the DH82 pSTAT Assay, Co-incubation IC50 [2] was 5.49 µg/ml and the DH82 pSTAT Assay, Pre-treatment IC50 [2] was 5.18 µg/ml.

B7: Caninized 34D03 (antibody, V domains shown)
VH: EVQLVESGGDLVKPGGSLRLSCVASGFTFSNYGMSWVRQAPGKGLQWVATISYGGSYTYYPDNIKGRFTISRDNAKNTLYLQMNSLRAEDTAMYYCVRGYGYDTMDYWGQGTLVTVSS
VL: EIVMTQSPASLSLSQEEKVTITCKASQSVSFAGTGLMHWYQQKPGQAPKLLIYRASNLEAGVPSRFSGSGSGTDFSFTISSLEPEDVAVYYCQQSREYPWTFGQGTKLEIKR
Binder B7 has a Kd [1] of 29.1 pM, a DH82 pSTAT Assay, Co-incubation IC50 [2] of 2.42 µg/ml and a DH82 pSTAT Assay, Pre-treatment IC50 [2] of 2.25 µg/ml. It also gave an IC50 (inhibition of canine IL-31 induced pSTAT signaling in canine DH82 monocytes) [4] of 2.29 µg/mL.

B8: Felinized 34D03 (antibody, V domains shown)
VH: DVQLVESGGDLVKPGGSLRLTCVASGFTYSNYGMSWVRQAPGKGLQWVATISYGGSYTYYPDNIKGRFTISRDNAKNTLYLQMNSLKTEDTATYYCVRGYGYDTMDYWGQGTLVTVSS
VL: EIQMTQSPSSLSASPGDRVTITCKASQSVSFAGTGLMHWYQQKPGKVPKLLIYRASNLEAGVPSRFSGSGSGTDFTLTISSLEPEDAATYYCQQSREYPWTFGQGTKLEIKR
B8 gave an IC50 (inhibition of canine IL-31 induced pSTAT signaling in canine DH82 monocytes) [4] of 2.41 µg/mL.

B9: Caninized 19D07 (antibody, V domains shown)
VH: EVQLVESGGDLVKPGGSLRLSCVASGFTFSSYDMSWVRQAPGKGLQWVATITSGGGYTYSADSVKGRFTISRDNARNTLYLQMNSLRSEDTAVYYCARQNWVVGLAYWGQGTLVTVSS
VL: EIVMTQSPASLSLSQEEKVTITCKSSQSLLNSGNQKNYLAWYQQKPGQAPKLLIYGASTRESGVPSRFSGSGSGTDFSFTISSLEPEDVAVYYCQNDYSYPYTFGQGTKLEIKR
In the case of B9, the Kd [1] is reported as 923 pM.

B10: Mouse 11E12 (antibody, V domains shown)
VH: QVQLQQSGAELVKPGASVKLSCKASGYTFKYYDINWVRQRPEQGLEWIGWIFPGDGGTKYNETFKGKATLTTDKSSSTAYMQLSRLTSEDSAVYFCARGGTSVIRDAMDYWGQGTSVTVSS
VL: DIVLTQSPASLAVSLGQRATISCRASESVDNYGISFMHWYQQKPGQPPKLLIYRASNLESGIPARFSGSGSRTDFTLTINPVETDDVATYYCQQSNKDPLTFGAGTKLELK
With B10 the Kd [1] was 0.893 pM, the DH82 pSTAT Assay, Co-incubation IC50 [2] was 1.61 µg/ml and the DH82 pSTAT Assay, Pre-treatment IC50 [2] was 2.28 µg/ml.

B11: Chimeric 11E12 (antibody, V domains shown)
VH: QVQLQQSGAELVKPGASVKLSCKASGYTFKYYDINWVRQRPEQGLEWIGWIFPGDGGTKYNETFKGKATLTTDKSSSTAYMQLSRLTSEDSAVYFCARGGTSVIRDAMDYWGQGTSVTVSS
VL: DIVLTQSPASLAVSLGQRATISCRASESVDNYGISFMHWYQQKPGQPPKLLIYRASNLESGIPARFSGSGSRTDFTLTINPVETDDVATYYCQQSNKDPLTFGAGTKLELKR
B11 gave a Kd [1] of 0.268 pM, a DH82 pSTAT Assay, Co-incubation IC50 [2] of 1.48 µg/ml and a DH82 pSTAT Assay, Pre-treatment IC50 [2] of 1.57 µg/ml.

B12: Mouse 19D07 (antibody, V domains shown)
VH: EVKLVESGGGLVKPGGSLKLSCAASGFAFSSYDMSWVRQIPEKRLEWVATITSGGGYTYSADSVKGRFTISRDNARNTLYLQMSSLRSEDTAVYYCARQNWVVGLAYWGQGTLVTVSA
VL: DIVMSQSPSSLSVSAGDKVTMSCKSSQSLLNSGNQKNYLAWYQQKPWQPPKLLIYGASTRESGVPDRFTGSGSGTDFTLTISSVQAEDLAVYYCQNDYSYPYTFGGGTKLEIK
With B12 the Kd [1] was 7.24 pM, the DH82 pSTAT Assay, Co-incubation IC50 [2] was 1.76 µg/ml and the DH82 pSTAT Assay, Pre-treatment IC50 [2] was 3.46 µg/ml.

B13: Chimeric 19D07 (antibody, V domains shown)
VH: EVKLVESGGGLVKPGGSLKLSCAASGFAFSSYDMSWVRQIPEKRLEWVATITSGGGYTYSADSVKGRFTISRDNARNTLYLQMSSLRSEDTAVYYCARQNWVVGLAYWGQGTLVTVSA
VL: DIVMSQSPSSLSVSAGDKVTMSCKSSQSLLNSGNQKNYLAWYQQKPWQPPKLLIYGASTRESGVPDRFTGSGSGTDFTLTISSVQAEDLAVYYCQNDYSYPYTFGGGTKLEIKR
Binder B13 has a Kd [1] of 0.515 pM, a DH82 pSTAT Assay, Co-incubation IC50 [2] of 1.92 µg/ml and a DH82 pSTAT Assay, Pre-treatment IC50 [2] of 1.33 µg/ml.
